Like-named read-outs stand apart in the source and are kept apart here. Blank lines part the entries; values can stand above or below the substance they belong to.
What was measured:
[1] = molecular target: R21A mutant of the α-spectrin SH3 domain (R21A Spc-SH3); test: ITC titration of R21A Spc-SH3 with p41; format: binding, chicken; settings: 25°C, global fit of three isotherms, error = 95% confidence interval
Method: (§1) The binding between the p41 decapeptide and the R21A Spc-SH3 mutant domain was studied by a combination of isothermal titration calorimetry (ITC) and differential scanning calorimetry (DSC) experiments. ITC experiments were performed at 25°C at both pH 3.0 and 7.0, using several buffers at a concentration of 20 mM. Similar ITC experiments were made with the WT Spc-SH3 domain for comparison. […] The contribution of protonation/deprotonation processes to the binding enthalpy change, was estimated using three buffers differing in their ionization heats (Figure 1B).
(§2) ITC experiments were performed at 25°C in a high-precision MCS titration calorimeter (Microcal Inc., Northampton, MA). Prior to the experiments the protein was extensively dialyzed at 4°C against the appropriate buffer. The solutions of p41 peptide were prepared by dissolving the lyophilized material directly into the buffer and subsequently adjusting the pH of the solution. All buffers and solutions were filtered and degassed and equilibrated to the working temperature prior to each experiment. […] The binding constant, Kb, and the enthalpy change of binding, ΔHb, were determined by global fitting of the three binding isotherms measured in different buffers, using a model of binding to a single set of identical sites, according to the equation: […]

[2] = system: WT α-spectrin SH3 domain (WT Spc-SH3); settings: Spc-SH3 relative to Abl-SH3; cited from earlier work
Excerpt: Background SH3 domains are small protein modules of 60–85 amino acids that bind to short proline-rich sequences with moderate-to-low affinity and specificity. Interactions with SH3 domains play a crucial role in regulation of many cellular processes (some are related to cancer and AIDS) and have thus been interesting targets in drug design. The decapeptide APSYSPPPPP (p41) binds with relatively high affinity to the SH3 domain of the Abl tyrosine kinase (Abl-SH3), while it has a 100 times lower affinity for the α-spectrin SH3 domain (Spc-SH3). Results Here we present the high-resolution structu ... || Here we present the solution structure of the R21A mutant of the α-spectrin SH3 domain (Spc-SH3), both in its free form and bound to the decapeptide APSYSPPPPP (p41). We also show a complete thermodynamic characterization of the SH3-p41 interaction by calorimetric methods, together with an analysis of its effect upon the conformational dynamics of the SH3 domain using amide hydrogen-deuterium exchange (HX). The p41 peptide was initially designed as a high-affinity and high-specificity ligand for the Abl-SH3 domain [6] and the crystal structure of the complex was subsequently determined [[12] ...

[3] = molecular target: WT α-spectrin SH3 domain (WT Spc-SH3); test: ITC titration of WT Spc-SH3 with p41; format: binding, chicken; parameters: unit not given here; settings: 25°C, global fit of three isotherms, error = 95% confidence interval
Method: as §1, §2

[4] = molecular target: SH3 domain of the Abl tyrosine kinase (Abl-SH3); settings: cited from earlier work; for Kb (binding constant): ITC, 25°C
Excerpt: The affinities are much lower than that of the Abl-SH3 domain for p41 under similar conditions, which is in the range of 2 × 10^5 – 4 × 10^5 M^-1 [16]. In all cases the binding is driven by a large and favourable enthalpy change, partially compensated by an unfavourable entropy change. A similar thermodynamic signature is usually observed for the binding of proline-rich peptides to other SH3 domains. The very small variation of the binding enthalpies with the ionization enthalpy of the buffers ... || We have performed a global analysis of the ΔCpapp MathType@MTEF@5@5@+=feaafiart1ev1aaatCvAUfKttLearuWrP9MDH5MBPbIqV92AaeXatLxBI9gBaebbnrfifHhDYfgasaacH8akY=wiFfYdH8Gipec8Eeeu0xXdbba9frFj0=OqFfea0dXdd9vqai=hGuQ8kuc9pgc9s8qqaq=dirpe0xb9q8qiLsFr0=vr0=vr0dc8meaabaqaciaacaGaaeqabaqabeGadaaakeaacqqHuoarcqWGdbWqdaqhaaWcbaGaemiCaahabaGaemyyaeMaemiCaaNaemiCaahaaaaa@34D4@ curves using a simple model in which the protein/ligand binding and protein unfolding equilibria are coupled (Figure 2). This analysis is, with minor modifications, similar to that used previously for the analysis of the interaction be ...

[5] = molecular target: p41 decapeptide; test: ITC (quoted from reference 16, Palencia et al. 2004); settings: 25 °C (Table 1 title), not stated ('under similar conditions'), cited from earlier work; for Kb: scale: 10^3 M^-1
[6] = molecular target: p41 decapeptide; test: ITC (Microcal MCS); settings: 25 °C, added salt not given, 20 mM buffer only, Three buffers of different ionisation heat at each pH, each 20 mM. At pH 7.0: phosphate, hepes and imidazole (named in F); for Kb: scale: 10^3 M^-1

Kb (binding constant) ([1]; pH 3.0, 20 mM buffers): 18.2 ± 2.0 ×10^-3 M^-1
Kb (binding constant) ([1]; pH 7.0, 20 mM buffers (phosphate, hepes, imidazole), single set of identical sites): 18.1 ± 1.9 ×10^-3 M^-1
Kb (binding constant) ([3]; pH 3.0, 20 mM buffers): 5.8 ± 0.8 ×10^-3
Kb (binding constant) ([3]; pH 7.0, 20 mM buffers): 5.2 ± 1.2 ×10^-3
Substance: APSYSPPPPP [p41, synthetic decapeptide …, both acetylated and methylated in its termini]
times lower affinity for Spc-SH3 than for Abl-SH3 [2]: 100 times
Kb (binding constant) ([4]; pH 3.0): 210000 M⁻¹
Kb (binding constant) ([4]; pH 7.0): 323000 M⁻¹
affinity of the Abl-SH3 domain for p41 (binding constant) ([4]; under similar conditions): 200000 to 400000 M⁻¹

Substance: Abl tyrosine kinase SH3 domain (Abl-SH3)
ΔGb ([5]; pH 3.0): -7.27 kcal/mol
Kb ([5]; pH 3.0): 210
p (protons per mole of ligand bound) ([5]; pH 7.0): 0.1
ΔGb ([5]; pH 7.0): -7.5 kcal/mol
Kb ([5]; pH 7.0): 323

p (protons per mole of ligand bound) ([6]; pH 3.0): -0.29
ΔGb ([6]; pH 3.0): -5.81 kcal/mol
Kb ([6]; pH 3.0): 18.2
p (protons per mole of ligand bound) ([6]; pH 7.0): 0.06
ΔGb ([6]; pH 7.0): -5.81 kcal/mol
Kb ([6]; pH 7.0): 18.1
Substance: alpha-spectrin SH3 domain (Spc-SH3), R21A mutant R21A

p (protons per mole of ligand bound) ([6]; pH 3.0): -0.07
ΔGb ([6]; pH 3.0): -5.14 kcal/mol
Kb ([6]; pH 3.0): 5.8
p (protons per mole of ligand bound) ([6]; pH 7.0): 0.01
ΔGb ([6]; pH 7.0): -5.07 kcal/mol
Kb ([6]; pH 7.0): 5.2
Substance: alpha-spectrin SH3 domain (Spc-SH3), wild type

From paper PMC1853097, “The high-resolution NMR structure of the R21A Spc-SH3:P41 complex: Understanding the determinants of binding affinity by comparison with Abl-SH3” (BMC Structural Biology, 2007)
